Test results: US20150299332A1 (UNIVERSITY OF TSUKUBA, published 2015)

Biological target: T1, human CD300a-Fc (human, UniProt Q9UGN4 18-180)
T1 construct: extracellular domain; Made from a chimeric cDNA as in Document 25; not shown: human IgG1 Fc
T1 sequence (looked up): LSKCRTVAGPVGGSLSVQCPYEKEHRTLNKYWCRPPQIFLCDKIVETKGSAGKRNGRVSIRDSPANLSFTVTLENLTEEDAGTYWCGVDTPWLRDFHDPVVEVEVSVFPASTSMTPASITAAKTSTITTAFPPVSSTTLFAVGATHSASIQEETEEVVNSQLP
Assay: flow cytometry binding inhibition: human CD300a-Fc on apoptotic Jurkat cells with TX49 (binding of TX49 to CD300a-Fc shown by blocking)
Experimental: First, Jurkat cells (human T-cell line) were suspended in RPMI 1640 medium, and the resulting medium was irradiated with UV for 60 minutes to prepare apoptotic Jurkat cells.
Further, cytometry analysis was carried out under the same test conditions as in Reference Example 1B except that the “Jurkat cell-derived apoptotic cells” were used as apoptotic cells instead of the apoptotic cells derived from wild-type mouse thymocytes; “human CD300a-Fc” was used instead of the “mouse CD300a-Fc”; and “TX49” or “control human IgG1” was used instead of “TX41” (results: FIG. 2E “TX49” or “HuIgG1”). “TX49” is an anti-human CD300a antibody (monoclonal antibody), and blocks binding of CD300a to the ligand.

- binding result: binds
B1: Human CD300a monoclonal antibody TX49 (mouse IgG1) (antibody, V domains shown)
VH: EVQLQQSGAELVKPGASVKLSCKASGYTFTSYWMQWVKQRPGQGLEWIGEIDPSDSYTNYNQKFKGKATLTVDTSSSTTYMQLSSLTSEDSAVYYCARWGMAYGTSSYWYFDVWGTGTTVTVSS
VL: DCDIQMTQTTSSLSASLGDRVTISCRASQDISNYLNWYQQKPDGTVKLLIYYTSRLHSGVPSRFSGSGSGTDYSLTISNLEQEDIATYFCQQGNTLPWTFGGGTKLEIKR
notes: also called anti-human CD300a monoclonal antibody; anti-human CD300a antibody
